Experimental data: IntAct's records for PubMed 29039417

B1: BBSome complex member BBS4 (Homo sapiens), Q96RK4 (parent)
chain: MAEERVATRTQFPVSTESQKPRQKKAPEFPILEKQNWLIHLHYIRKDYEACKAVIKEQLQETQGLCEYAIYVQALIFRLEGNIQESLELFQTCAVLSPQSADNLKQVARSLFLLGKHKAAIEVYNEAAKLNQKDWEISHNLGVCYIYLKQFNKAQDQLHNALNLNRHDLTYIMLGKIHLLEGDLDKAIEVYKKAVEFSPENTELLTTLGLLYLQLGIYQKAFEHLGNALTYDPTNYKAILAAGSMMQTHGDFDVALTKYRVVACAVPESPPLWNNIGMCFFGKKKYVAAISCLKRANYLAPFDWKILYNLGLVHLTMQQYASAFHFLSAAINFQPKMGELYMLLAVALTNLEDIENAKRAYAEAVHLDKCNPLVNLNYAVLLYNQGEKKNALAQYQEMEKKVSLLKDNSSLEFDSEMVEMAQKLGAALQVGEALVWTKPVKDPKSKHQTTSTSKPASFQQPLGSNQALGQAMSSAAAYRTLPSGAGGTSQFTKPPSLPLEPEPAVESSPTETSEQIREK
partner: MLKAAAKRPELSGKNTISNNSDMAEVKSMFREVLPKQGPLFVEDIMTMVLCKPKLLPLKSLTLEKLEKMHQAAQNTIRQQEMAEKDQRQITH

Variants of: B1
Conditions: with bbip1_human BBIP1, A8MTZ0

Effect of a mutation on the interaction, with no effect:
S507K
S508A
S508E
S508K
P509A
P509E
P509K
T510A
T510E
T510K
E511A
E511K
T512A
T512E
T512K
S513A
S513E
S513K
E514A
E514K
Q515A
Q515E
Q515K
I516A
I516E
I516K
R517A
R517E
R517K
E518A
E518K
K519A
K519E
